Assay results: patent US20190091332A1 (published 2019)
Changes are numbered by the printed parent chain. In names and notes the source's numbering stands.

T1: human LAG3-huFc (human, UniProt P18627 23-450, limits assumed)
T1 construct: also called human LAG3-Fc; huLAG3-huFc; not shown: human Fc (huFc)
T1 sequence: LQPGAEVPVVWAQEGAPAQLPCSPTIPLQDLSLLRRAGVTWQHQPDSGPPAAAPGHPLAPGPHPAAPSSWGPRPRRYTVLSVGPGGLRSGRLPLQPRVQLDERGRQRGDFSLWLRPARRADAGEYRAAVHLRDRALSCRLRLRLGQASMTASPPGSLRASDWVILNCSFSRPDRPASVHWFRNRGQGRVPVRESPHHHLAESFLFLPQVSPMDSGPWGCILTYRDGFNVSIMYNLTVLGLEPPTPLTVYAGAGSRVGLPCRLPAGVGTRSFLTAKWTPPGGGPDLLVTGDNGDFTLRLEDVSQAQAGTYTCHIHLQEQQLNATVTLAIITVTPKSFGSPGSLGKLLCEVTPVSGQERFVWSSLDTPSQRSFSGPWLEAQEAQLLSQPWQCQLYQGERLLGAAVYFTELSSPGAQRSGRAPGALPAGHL

B1: LB145.22D2.E1.1D1 (antibody, V domains shown)
VH: EVLLLQSGPELVKPGTSVKIPCKASGYTFTDYNVDWVKQRHGKGLEWIGDINPNNGGTIYSQKFKGKATLTVDKSSSTAFMELRSLTSEDTAVYFCARNYRWFGAMDHWGQGTSVTVSS
VL: DIVLTQSPASLAVSPGQRATISCKASQSLDYEGDSDMNWYQQKPGQPPRLLISGASNLESGIPARFSGSGSGTDFTVNIHPVEEEDAATYYCQQSTEDPRTFGGGTKLEIK
notes: also called mouse anti-human LAG3 clone 22D2; Lag3 clone 22D2
B2: LB148.19E8.G1.1A1 (antibody, V domains shown)
VH: QIRLQQSGPELVKPGASVKISCKASGSSFTDYYINWVKQKPGQGLEWIGWIYPGSGNSIYNENFKAKATLTVDTSSSTAYMHLSSLTSEDTAVYFCAREADYDDALDYWGQGTSVTVSS
VL: HILLTQSPAILSVSPGERVSFSCRASQSIGTSIHWYQQRTNGSPRLLIKYASESISGIPSRFSGSGSGTDFTLSINSVESEDIADYYCQQSNSWPTYTFGGGTKLEIK
notes: also called Lag3 clone 19E8
B3: LB148.11C9.1C1 (antibody, V domains shown)
VH: QVQLQQPGAELVMPGASAKMSCKASGYTLTDYWMHWVKQRPGQGLEWIGAIDISDSYSSYNQKFKGKATLTVDESSSTAYMQLTSLTSEDSAVYYCARSPFYNSRGGNYFDYWGQGTTLTVSS
VL: DIQMTQTTSSLSASLGDRVTISCRASQDISNYLNWYQQKPDGTVKLLIYYTSRLHSGVPSRFSGSGSGTDYSLTISNLEQEDIATYFCQQGDTLPPWTFGGGTKLEIK
notes: also called Lag3 clone 11C9; mouse x [LAG3_H] mAb (LB148.11C9.1C1) IgG1/kappa (HY)
B4: LB148.4A10.1H1 (antibody, V domains shown)
VH: EVQLLQSGAELVRSGASVKLSCTASGFNIEDYYMHWMKQRPEQGLEWIGWIDPVNGDTEYAPKFQGKATMTADTSSNTAYLHLNSLTSEDTAVYYCNFYDGYLFAFWGQGTLVTVSA
VL: DIVLTQAAPSVPVTPGESVSISCRSSKSLLHSDGNTYLYWLLQRPGQSPQLLIYRMSNLASGVPDRFSGSGSGTVFTLRISRLEAEDVGIYYCMQHLEYPFTFGGGTKLEIK
notes: also called Lag3 clone 4A10; mouse x [LAG3_H] mAb (LB148.4A10.1H1) IgG2a/kappa (HY)
B5: 22D2 Chimera ([LAG3_H] mAb (LB145.22D2.E1.D1 (VH0/VL0) Geneart) IgG4 S228P/kappa (PX)) (antibody, V domains shown)
VH: B1 VH
VL: B1 VL
notes: Chimeric antibody: 22D2 VH0/VL0 variable domains on human IgG4 S228P/kappa; also called Chimeric 22D2; Anti-hLAG3 clone 22D2 (chimeric antibody)
B6: Hu22D2 VH6/VL3 (Ab 5) (antibody, human IgG4 S228P, kappa, V domains shown)
VH: QMQLVQSGPEVKKPGTSVKVSCKASGYTFTDYNVDWVRQARGQRLEWIGDINPNNGGTIYAQKFQERVTITVDKSTSTAYMELSSLRSEDTAVYYCARNYRWFGAMDHWGQGTTVTVSS
VL: DIVMTQTPLSLSVTPGQPASISCKASQSLDYEGDSDMNWYLQKPGQPPQLLIYGASNLESGVPDRFSGSGSGTDFTLKISRVEAEDVGVYYCQQSTEDPRTFGGGTKVEIKR
notes: Humanized 22D2, IgG4 S228P/kappa; also called 45AGX light chain / 57AHH heavy chain IgG4 S228P
B7: Hu22D2 VH6/VL3 N55D (Ab 6) (antibody, human IgG4 S228P, kappa, V domains shown)
VH: B6 VH with N55D
VL: B6 VL
notes: Humanized 22D2, IgG4 S228P/kappa; also called Hu2D2; 45AGX light chain / 73AHD heavy chain IgG4 S228P
B8: Hu22D2 VH6/VL3 N55Q (Ab 8) (antibody, human IgG4 S228P, kappa, V domains shown)
VH: B6 VH with N55Q
VL: B6 VL
notes: Humanized 22D2, IgG4 S228P/kappa; also called 45AGX light chain / 80AHG heavy chain IgG4 S228P
B9: Hu22D2 VH6/VL3 N55S (Ab 7) (antibody, human IgG4 S228P, kappa, V domains shown)
VH: B6 VH with N55S
VL: B6 VL
notes: Humanized 22D2, IgG4 S228P/kappa; also called 45AGX light chain / 21AHG heavy chain IgG4 S228P

Tests used:
[1] = molecular target: T1, human LAG3-huFc; assay: flow cytometry competition: antibody pre-incubated with human LAG3-huFc, its binding to Daudi cells (MHC class II) read
Procedure: (§1) Mouse anti-human LAG3 clones were tested for their ability to block hLAG3 interaction with human MHC Class II. Daudi cells (ATCC #CCL-213) were used as a cell line positive for human MHC class II expression. Daudi cells were blocked with 10 ug/ml of goat IgG in HBSS and 2% BCS on ice for 30 minutes and 0.5×10⁶ cells/sample were aliquoted into a 96-well V-bottom plate and blocking buffer removed. […] Cells were pelleted by centrifugation at 1200 rpm and washed twice with HBSS/2% BCS. […] Cells were washed twice as described above, resuspended in HBSS/2% BCS and read on the FACSCalibur.

[2] = molecular target: T1, human LAG3-huFc; assay: as above; remark: listed apart in the source
Procedure: as §1

[3] = molecular target: T1, human LAG3-huFc; assay: flow cytometry competition: antibody pre-incubated with biotinylated human LAG3-huFc, its binding to Daudi cells (MHC class II) read with streptavidin-PE
Procedure: as §1, with “anti-human LAG3 and humanized anti-LAG3 clones were” for “anti-human LAG3 clones were”

Row | Binder | IC50 [1] | IC50 [2] | IC50 [3]
1 | B1 | 2.1 nM | 2.1 nM | –
2 | B2 | 2.8 nM | 2.8 nM | –
3 | B3 | 2 nM | 2 nM | –
4 | B4 | 1.9 nM | 1.9 nM | –
5 | B5 | – | – | 2.5 nM
6 | B6 | – | – | 2.6 nM
7 | B7 | – | – | 2.4 nM
8 | B8 | – | – | 2.5 nM
9 | B9 | – | – | 2.1 nM
